Earlier results on 1 substance are cited in PMC6248945, “Antibacterial properties of the pituitary adenylate cyclase-activating polypeptide: A new human antimicrobial peptide” (PLoS ONE, 2018).

Where no end group is shown, it is not given here.

The data set has as its system CHO-K1. Particulars: various eukaryotic cells including CHO-K1; cited from earlier work. The source says: This peptide, well known for its pleiotropic activities in human, mediates its biological activities through the activation of three G protein-coupled receptors, named PAC1, VPAC1, and VPAC2[8]. […] The ...

In the case of “[Arg^17]PACAP(11–38) (SRYRKQRAVKKYLAAVLGKRYKQRVKNK; ends and bridges not checked; UniProt P18509 142-169, looked up, variant M17R)”, the Cytotoxic effect entry is given as “no cytotoxic effect”.
